Bridges are numbered along the chain shown (N, C = ends). Where no end group is shown, it is not given here.
Tests used:
[1] = biological target: T1, ectodomain of MET (hepatocyte growth factor receptor) fused to Fc (UniProt P08581 25-932); assay: SPR; macrocyclic peptides on MET; concentration-dependent sensorgrams fitted by a 1:1 binding model; conditions: both partners purified
T1 construct: MET, hepatocyte growth factor receptor, a receptor tyrosine kinase; ectodomain; also called MET-Fc; Fc-tagged MET

[2] = biological target: T2, ectodomain of MET fused to Fc (UniProt P08581 25-932); assay: SPR
T2 chain: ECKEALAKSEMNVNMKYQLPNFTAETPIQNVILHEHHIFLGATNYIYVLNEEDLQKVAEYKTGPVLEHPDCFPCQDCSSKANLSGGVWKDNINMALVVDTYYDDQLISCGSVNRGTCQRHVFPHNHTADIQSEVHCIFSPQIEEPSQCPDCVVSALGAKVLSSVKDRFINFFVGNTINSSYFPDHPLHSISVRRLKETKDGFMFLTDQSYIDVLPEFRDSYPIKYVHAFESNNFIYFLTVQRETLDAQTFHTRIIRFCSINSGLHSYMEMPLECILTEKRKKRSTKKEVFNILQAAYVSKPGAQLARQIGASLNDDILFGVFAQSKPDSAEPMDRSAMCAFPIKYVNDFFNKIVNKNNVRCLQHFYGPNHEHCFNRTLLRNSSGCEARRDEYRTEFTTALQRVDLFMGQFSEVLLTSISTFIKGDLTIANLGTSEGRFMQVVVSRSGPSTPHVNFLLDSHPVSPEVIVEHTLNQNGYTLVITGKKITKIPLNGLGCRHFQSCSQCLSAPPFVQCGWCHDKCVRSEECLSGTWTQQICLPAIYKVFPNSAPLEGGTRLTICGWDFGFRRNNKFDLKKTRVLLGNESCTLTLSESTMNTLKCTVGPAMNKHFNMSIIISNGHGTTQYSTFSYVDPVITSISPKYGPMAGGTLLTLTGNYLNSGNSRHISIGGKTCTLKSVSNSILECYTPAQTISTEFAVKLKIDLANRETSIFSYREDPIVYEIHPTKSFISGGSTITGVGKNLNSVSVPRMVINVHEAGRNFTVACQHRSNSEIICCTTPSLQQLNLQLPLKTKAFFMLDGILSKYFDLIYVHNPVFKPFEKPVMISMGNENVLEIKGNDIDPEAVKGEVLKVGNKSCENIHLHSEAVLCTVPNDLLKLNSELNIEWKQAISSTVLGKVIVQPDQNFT

[3] = biological target: T3, ectodomain of MET fused to Fc (UniProt P08581 25-932); assay: SPR; fitted by a 1:1 binding model; who was immobilised and the conditions are in the Supporting Information (not shown); conditions: both partners purified
T3 construct: MET (hepatocyte growth factor receptor), a receptor tyrosine kinase; also called MET-Fc; Fc-tagged MET

[4] = biological target: T2, ectodomain of MET fused to Fc; assay: SPR

B1: macrocyclic peptide 10-2 (peptide)
chain: {CH2CO}-YWYYTFDGRWKEYGAACG-NH2
modifications: thioether N-17
SMILES: C[C@@H]1NC(=O)CNC(=O)[C@H](Cc2ccc(O)cc2)NC(=O)[C@H](CCC(=O)O)NC(=O)[C@H](CCCCN)NC(=O)[C@H](Cc2c[nH]c3ccccc23)NC(=O)[C@H](CCCNC(=N)N)NC(=O)CNC(=O)[C@H](CC(=O)O)NC(=O)[C@H](Cc2ccccc2)NC(=O)[C@H]([C@@H](C)O)NC(=O)[C@H](Cc2ccc(O)cc2)NC(=O)[C@H](Cc2ccc(O)cc2)NC(=O)[C@H](Cc2c[nH]c3ccccc23)NC(=O)[C@H](Cc2ccc(O)cc2)NC(=O)CSC[C@@H](C(=O)NCC(N)=O)NC(=O)[C@H](C)NC1=O
Binder B1 has a Kd [1] of 31 nM.

In the case of {CH2CO}-YIEWNRFNSKLWNCNCCG-NH2 (thioether N-17; cysteine pairing not given here) [macrocyclic peptide 10-4], the Kd [1] is reported as 308 nM.

B2: macrocyclic peptide 10-6 (peptide)
chain: {CH2CO}-YWWYYWYRDEYLWRTRCG-NH2
modifications: thioether N-17
SMILES: CC(C)C[C@@H]1NC(=O)[C@H](Cc2ccc(O)cc2)NC(=O)[C@H](CCC(=O)O)NC(=O)[C@H](CC(=O)O)NC(=O)[C@H](CCCNC(=N)N)NC(=O)[C@H](Cc2ccc(O)cc2)NC(=O)[C@H](Cc2c[nH]c3ccccc23)NC(=O)[C@H](Cc2ccc(O)cc2)NC(=O)[C@H](Cc2ccc(O)cc2)NC(=O)[C@H](Cc2c[nH]c3ccccc23)NC(=O)[C@H](Cc2c[nH]c3ccccc23)NC(=O)[C@H](Cc2ccc(O)cc2)NC(=O)CSC[C@@H](C(=O)NCC(N)=O)NC(=O)[C@H](CCCNC(=N)N)NC(=O)[C@H]([C@@H](C)O)NC(=O)[C@H](CCCNC(=N)N)NC(=O)[C@H](Cc2c[nH]c3ccccc23)NC1=O
B2 gave a Kd [1] of 219 nM.

{CH2CO}-YNCLWVECKIVLPNGRCG (disulfide 8-17; thioether N-3) [12–4] showed a Kd [2] of 15.8 nM and a koff [3] of 0.00721 s⁻¹.

B3: 12–1 (peptide)
chain: {CH2CO}-YISWFAYASKDWFVRPCG-NH2
modifications: thioether N-17
SMILES: CC[C@H](C)[C@@H]1NC(=O)[C@H](Cc2ccc(O)cc2)NC(=O)CSC[C@@H](C(=O)NCC(N)=O)NC(=O)[C@@H]2CCCN2C(=O)[C@H](CCCNC(=N)N)NC(=O)[C@H](C(C)C)NC(=O)[C@H](Cc2ccccc2)NC(=O)[C@H](Cc2c[nH]c3ccccc23)NC(=O)[C@H](CC(=O)O)NC(=O)[C@H](CCCCN)NC(=O)[C@H](CO)NC(=O)[C@H](C)NC(=O)[C@H](Cc2ccc(O)cc2)NC(=O)[C@H](C)NC(=O)[C@H](Cc2ccccc2)NC(=O)[C@H](Cc2c[nH]c3ccccc23)NC(=O)[C@H](CO)NC1=O
B3 showed a Kd [2] of 32 nM and a koff [3] of 0.00254 s⁻¹.

B4: macrocyclic peptide 10-5 (peptide)
chain: {CH2CO}-YLLWHKYDNKDWVYVDCG-NH2
modifications: thioether N-17
SMILES: CC(C)C[C@@H]1NC(=O)[C@H](Cc2ccc(O)cc2)NC(=O)CSC[C@@H](C(=O)NCC(N)=O)NC(=O)[C@H](CC(=O)O)NC(=O)[C@H](C(C)C)NC(=O)[C@H](Cc2ccc(O)cc2)NC(=O)[C@H](C(C)C)NC(=O)[C@H](Cc2c[nH]c3ccccc23)NC(=O)[C@H](CC(=O)O)NC(=O)[C@H](CCCCN)NC(=O)[C@H](CC(N)=O)NC(=O)[C@H](CC(=O)O)NC(=O)[C@H](Cc2ccc(O)cc2)NC(=O)[C@H](CCCCN)NC(=O)[C@H](Cc2c[nH]cn2)NC(=O)[C@H](Cc2c[nH]c3ccccc23)NC(=O)[C@H](CC(C)C)NC1=O
With B4 the Kd [1] was 19.5 nM and the koff [4] was 0.00694 s⁻¹.

Source: publication PMC11950852, “Diversity Scale of Library Matters: Impact of mRNA Library Diversity Scales on the Discovery of Macrocyclic Peptides Targeting a Protein by the RaPID System” (ACS Central Science, 2025)
